One molecule from patent US20120028347A1 (TOKAI UNIVERSITY EDUCATIONAL SYSTEM, published 2012) can be followed below.

Experiment [1] has as its target T1, baculovirus-derived recombinant human CD4 (rhCD4) (human, UniProt P01730 26-396, limits assumed).
T1 construct: Bought reagent, coated on ELISA plates at 50 ng/well
Briefly: ELISA, purified Fab on coated rhCD4 (50 ng/well); amount of antibody at OD650 of about 0.7 to 0.8, where 50% of the maximum binding was observed. On the procedure:
Thereafter, the wells were washed with PBS-T (PBS-0.05% Tween) once. Then, 300 μL of PBS-T-SM (PBS-T-1% skim milk) was added thereto, so as to block it at room temperature for 1 hour. Subsequently, the PBS-T-SM was removed, 50 μL of an antibody sample diluted with PBS-T-SM was then added thereto, and the mixture was then left at room temperature for 1 hour. Thereafter, the sample was removed, and the residue was then washed with PBS-T three times. A PO-bound anti-human IgG-Fab antibody was diluted with PBS-T at a ratio of 1:2000, and 50 μL of the thus diluted solution was then added to the wells. The obtained mixture was left at room temperature for 1 hour. Thereafter, the secondary antibody was removed, and the residue was then washed with PBS-T three times. 50 μL of a TMB reagent was added to the resultant, so as to develop color. The color was measured at OD of 650 nm.
(§1) The percentage of peripheral B cells producing human CD4-reactive antibodies in total peripheral B cells was assumed to be approximately 0.0013%. The binding of the IgM Fab of each of the purified three clones to rhCD4 was examined by ELISA (FIG. 2).
On the technique in general: In an ELISA, binding on a coated surface is turned into a signal by an enzyme label.

In experiment [2] the target is T1, baculovirus-derived recombinant human …. Briefly: ELISA, purified Fab on coated rhCD4. The protocol: The rhCD4 was dissolved in a 50 mM carbonate buffer (pH 9.6) solution to a concentration of 2 μg/mL, and the thus prepared solution was dispensed in an amount of 50 μL each into the wells on an ELISA plate, and it was then left at 4° C. overnight. Thereafter, the wells were washed with PBS-T (PBS-0.05% Tween) once. Then, 300 μL of PBS-T-SM (PBS-T-1% skim milk) was added thereto, so as to block it at room temperature for 1 hour. Subsequently, the PBS-T-SM was removed, 50 μL of an antibody sample diluted with PBS-T-SM was then added thereto, and the mixture was then left at room temperature for 1 hour. Thereafter, the sample was removed, and the residue was then washed with PBS-T three times. A PO-bound anti-human IgG-Fab antibody was diluted with PBS-T at a ratio of 1:2000, and 50 μL of the thus diluted solution was then added to the wells. The obtained mixture was left at room temperature for 1 hour. Thereafter, the secondary antibody was removed, and the residue was then washed with PBS-T three times. 50 μL of a TMB reagent was added to the resultant, so as to develop color. The color was measured at OD of 650 nm.
as §1

B1: HO538-213 (Fab, V domains shown)
VH: QVQLVQSGGGVVQPGRSLRLSCAASGFTFSSYGMHWVRQAPGKGLEWVAVVCYDGRTTYYADSVKGRFTISRDISENTLYLQMNSLRAEDTAVYYCAKDLNKGYCNNGGCYGVDCWGQGTLVTVSS
VL: EIVMTQSPATLSLSPGERATLSCRASQSVNNYLAWYQQRPGQAPSLLIYDASNRATGIPARFSGSGSGTDFTLTISSLEPEDFAVYYCQQRGNWPHTFGQGTKLEIKR
notes: Human IgM Fab (mu Fd and kappa light chain) expressed in E. coli JM109 from the vector pFab1-His2 and purified on an anti-Fab column; No sentence says it outright
Usually EC50 stands for the concentration needed to bring the measured effect to its halfway point. For B1, the EC50 in experiment [1] is about 8 mg/L. Also, the “affinity relative to the other clones (HO702-001 and HO702-016)” value in experiment [2] is 0.125 fold.
